The values that follow come from patent US10500274B2, “Methods for reducing viral load in HIV-1 infected patients” (CytoDyn Inc., priority 2008, dated 2019).

“And” between values parts separate entries of the source, which are not always exact repeats. Identical values can stand only once. Like-named read-outs stand apart in the source and are kept apart here.

The test system of series [1] is HIV-1 isolates of study subjects. Description: PhenoSense HIV Entry assay on viruses of Phase 1b subjects. Format: cell-based. The procedure:
Plasma HIV-1 RNA levels were determined with the Cobas Amplicor HIV-1 Monitor Test (Version 1.5; Roche Diagnostics, Branchburg, N.J.). Samples <400 copies/mL were re-analyzed with the Ultrasensitive Monitor Method. Co-receptor tropism was determined at screening and Days 1, 8, 29 and 59 (Trofile™ assay, Monogram Biosciences, Inc., South San Francisco, Calif.). Viral susceptibility was determined on Days 1 and 59 with the Phenosense™ HIV Entry assay. […] Maximum percent inhibitions were determined from the plateaus of the inhibition curves. The reference virus was HIV-192HT594, a low-passage dual-tropic isolate. GeneSeq™ (Monogram Biosciences) was used to assess HIV-1 subtype and genotypic susceptibility to protease and reverse transcriptase inhibitors.

Another series relates to CCR5 lymphocytes. Briefly: Phase 1a clinical study: coating of CCR5 cells by PRO 140. The series is classed as in vivo, human. The following applies: single IV 2 mg/kg. The procedure: Individuals were treated in sequential, dose-rising cohorts of 5 subjects (4 active and 1 placebo) each and evaluated for up to 120 days post-treatment. […] Safety assessments consisted of monitoring the following: vital signs (blood pressure, pulse, temperature, etc; hematology (hemoglobin, hematocrit, leukocytes, platelets, etc.); serum chemistries (AST/ALT, alkaline phosphatase, BUN, creatinine, etc.); urinalysis (pH, specific gravity, protein, glucose, leukocytes, etc.); and ECGs (12-lead).
Whole blood specimens were combined separately with the indicated phycoerythrin-labeled anti-CCR5 antibodies or with appropriate isotype-control antibodies. Erythocytes were lysed and leukocytes were stabilized using the ImmunoPrep Reagent System (Beckman Coulter), and the cells were analyzed on a TQ Prep™ flow cytometry workstation (Beckman Coulter). Data were expressed as the percent of CCR5 cells relative to all cells gated in the analysis.

On the set-up of series [2]: species or system human. Particulars: in vivo, sc. From the text:
Subjects were followed for a total of 58 days for safety and antiviral effects. Entry criteria included: HIV-1 RNA >5,000 copies/mL, R5 virus, […], no antiretroviral therapy <12 weeks.

For series [3] the following is noted: human, in vivo; for Peak serum concentration (average) / mean time to last observation (tlast) / volume of distribution (average): iv. From the text:
PK metrics were estimated using non-compartmental methods.

Series [4] has as its system HIV-1JR-FL envelope-mediated membrane fusion. Description: microbe, parasite or virus in culture. Format: cell-based. The following applies: inhibitor alone, experiment depicted in FIG. 15A; read-out: IC90.

In general, IC90 refers to the point of the concentration-response curve where the effect stands at 90%.

B1: PRO 140: humanized IgG4,κ anti-CCR5 mAb, humanized version of the murine mAb PA14 (antibody, chains of the INN, looked up, V domains shown)
VH: EVQLVESGGGLVKPGGSLRLSCAASGYTFSNYWIGWVRQAPGKGLEWIGDIYPGGNYIRNNEKFKDKTTLSADTSKNTAYLQMNSLKTEDTAVYYCGSSFGSNYVFAWFTYWGQGTLVTVSS
VL: DIVMTQSPLSLPVTPGEPASISCRSSQRLLSSYGHTYLHWYLQKPGQSPQLLIYEVSNRFSGVPDRFSGSGSGTDFTLKISRVEAEDVGVYYCSQSTHVPLTFGQGTKVEIK
B1: the “change in viral susceptibility, baseline to day 59 (in words)” value in series [1] (IC50 or Fold Change) is recorded as “No change from baseline to day 59”. In addition, in series [1] (baseline), the “Mean Maximum Percent Inhibition (MPI)” value is 99% and 98.9±1.5%; the “variation of baseline rIC50 values across the 39 subjects” value stood at 6.2 fold. The “Mean rIC50 (IC50 test isolate / IC50 reference virus)” value in series [1] (baseline, viruses of PRO 140-treated subjects) is listed as 2.0 (range: 0.83-5.1). The “Mean Maximum Percent Inhibition (MPI)” value in series [1] (post-treatment (end of study)) was 99% and 99.0±1.0%. For the same molecule, in the series with CCR5 lymphocytes, the “coating of CCR5 lymphocytes (in words)” value is “effectively coats CCR5 lymphocytes without cellular depletion for two weeks”. In series [2], the administration site reactions result was “mild in intensity and resolved within one to two days”; the “drug-related serious adverse events” value is recorded as “no drug-related serious adverse events”; the tolerability result is “generally well tolerated compared to placebo”. For the same molecule, in series [3], the “time of peak concentrations post-infusion” value is 30 to 60 min. Further, in series [3] (0.5 mg/kg), the “Peak serum concentration (average)” value was found to be 13 µg/mL, the “mean time to last observation (tlast)” value came to 6.1 days and the “volume of distribution (average)” value is reported as 8.4 L. In series [3] (2 mg/kg), the “Peak serum concentration (average)” value worked out at 61 µg/mL, the “mean time to last observation (tlast)” value is given as 18.2 days and the “volume of distribution (average)” value is reported as 13.8 L. In series [3] (5 mg/kg), the “Peak serum concentration (average)” value amounted to 173 µg/mL, the “mean time to last observation (tlast)” value was 18.9 days and the “volume of distribution (average)” value stood at 7.1 L. Besides, the IC90 in series [4] was found to be 111 nM.
